Patent publication US20260209365A1, “ANTI-COMMON GAMMA CHAIN PROTEINS AND COMPOSITIONS OF MATTER” (SINOMAB BIOSCIENCE LIMITED, priority 2023, published 2026)
Read-outs that look alike come from different tables or passages of the source.

Experiments:
[1] = biological target: T1, Rhesus (Macaca mulatta, UniProt A0A5F8A3G1); test: flow cytometry, FITC-hSM-05A on HEK-293 cells transfected with full-length rhesus γc, N=3
T1 construct: full length, on the cell surface; the purified extracellular domain is 1.m23; also called rhesus γc protein, full length, on HEK-293 cells
T1 sequence (receptor chain): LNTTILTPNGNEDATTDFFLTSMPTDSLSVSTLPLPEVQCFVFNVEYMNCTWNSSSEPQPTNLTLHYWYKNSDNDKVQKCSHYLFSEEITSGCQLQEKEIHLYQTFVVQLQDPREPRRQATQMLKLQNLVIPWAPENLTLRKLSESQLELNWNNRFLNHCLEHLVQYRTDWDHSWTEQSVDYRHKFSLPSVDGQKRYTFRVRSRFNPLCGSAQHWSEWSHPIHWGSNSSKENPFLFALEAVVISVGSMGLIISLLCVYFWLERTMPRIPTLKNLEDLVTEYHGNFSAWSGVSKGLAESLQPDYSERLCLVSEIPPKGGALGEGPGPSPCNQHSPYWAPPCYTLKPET
Protocol: In brief, hSM-05A was fluorescently labelled with FITC. HEK-293 cells were transfected with the plasmids expressing the full-length γc proteins from different species for 2 days before the incubation with the fluorescent antibodies for flow cytometry analyses. […] All antibodies were administrated at 33 nM (5 μg/ml). C=non-transfected control; Hu: Humans; Rh: Rhesus monkey; Cy: Cynomolgus; Ma: Common marmoset. N=3 for all groups.
The binding specificities of humanized anti-γc antibodies to native γc proteins were further evaluated by […] binding assay. In brief, human HEK-293 cells were transfected with plasmid expressing full length γc protein from human, rhesus, cynomolgus or common marmoset. Two days later, transfected cells or non-transfected controls were incubated with FITC-conjugated hSM-05A on ice for an hour before analysis by flow cytometry.

[2] = biological target: T2, human γc protein (extracellular domain), purified (human (Homo sapiens), UniProt P31785 23-262); test: ELISA, strip coated with 1 µg/ml human γc, antibody in 5-fold dilutions from 10 to 0.00064 µg/ml, OD 450 nm
T2 construct: Either purchased from Sino Biological or in-house generated; also called human common gamma chain; CD132; not shown: which was used i
T2 sequence: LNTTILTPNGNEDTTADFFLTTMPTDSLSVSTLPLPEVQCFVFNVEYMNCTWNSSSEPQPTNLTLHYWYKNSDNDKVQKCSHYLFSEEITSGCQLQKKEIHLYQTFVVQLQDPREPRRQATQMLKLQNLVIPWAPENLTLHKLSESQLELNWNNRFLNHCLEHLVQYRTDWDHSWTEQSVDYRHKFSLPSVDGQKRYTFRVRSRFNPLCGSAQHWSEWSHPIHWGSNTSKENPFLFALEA
Protocol: (§1) The ELISA strip was coated with 1 μg/ml γc protein from each species. Antibody was diluted 5-fold each from 10 μg/ml to 0.00064 μg/ml.

[3] = biological target: T3, rabbit γc protein (extracellular domain), purified (rabbit (Oryctolagus cuniculus)); test: ELISA, strip coated with 1 µg/ml rabbit γc, antibody in 5-fold dilutions from 10 to 0.00064 µg/ml, OD 450 nm
T3 construct: also called rabbit (Oryctolagus cuniculus) γc
T3 chain: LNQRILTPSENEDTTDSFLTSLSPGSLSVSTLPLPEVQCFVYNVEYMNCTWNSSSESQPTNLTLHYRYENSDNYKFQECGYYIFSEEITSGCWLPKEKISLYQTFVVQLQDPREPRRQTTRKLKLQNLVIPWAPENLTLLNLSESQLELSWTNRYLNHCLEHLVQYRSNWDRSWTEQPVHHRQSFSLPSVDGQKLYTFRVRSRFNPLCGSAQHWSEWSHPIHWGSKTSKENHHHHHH
Protocol: as §1
(§2) Humanized antibodies with back-mutation (hSM-05A and hSM-05E) were tested in the following assays. Binding affinities were investigated in the ELISA assays.

[4] = biological target: T4, rhesus γc protein (extracellular domain), purified (rhesus (Macaca mulatta), UniProt P31785 23-254 (human entry)); test: ELISA, strip coated with 1 µg/ml rhesus γc, antibody in 5-fold dilutions from 10 to 0.00064 µg/ml, OD 450 nm
T4 construct: also called rhesus (Macaca mulatta) γc
T4 chain: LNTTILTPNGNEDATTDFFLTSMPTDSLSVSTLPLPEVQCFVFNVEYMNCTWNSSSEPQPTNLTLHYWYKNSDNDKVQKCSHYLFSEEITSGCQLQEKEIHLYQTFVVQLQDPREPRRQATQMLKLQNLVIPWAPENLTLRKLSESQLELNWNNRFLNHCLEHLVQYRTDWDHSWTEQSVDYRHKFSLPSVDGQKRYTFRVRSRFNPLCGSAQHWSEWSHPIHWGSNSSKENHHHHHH
Protocol: as §1

[5] = biological target: T5, chimpanzee γc protein (extracellular domain), purified (chimpanzee (Pan troglodytes), UniProt P31785 23-262); test: ELISA, strip coated with 1 µg/ml chimpanzee γc, antibody in 5-fold dilutions from 10 to 0.00064 µg/ml, OD 450 nm
T5 construct: also called chimpanzee (Pan troglodytes) γc
T5 sequence: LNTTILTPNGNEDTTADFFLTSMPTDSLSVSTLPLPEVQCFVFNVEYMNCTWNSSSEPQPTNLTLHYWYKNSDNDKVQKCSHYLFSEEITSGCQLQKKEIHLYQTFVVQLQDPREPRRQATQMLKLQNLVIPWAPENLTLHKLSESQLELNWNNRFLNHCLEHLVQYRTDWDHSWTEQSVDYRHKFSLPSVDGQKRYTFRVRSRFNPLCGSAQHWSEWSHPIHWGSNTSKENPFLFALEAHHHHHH
Protocol: as §1

[6] = biological target: T6, common marmoset γc protein (extracellular domain), purified (common marmoset (Callithrix jacchus), UniProt P31785 26-262 (human entry)); test: ELISA, strip coated with 1 µg/ml common marmoset γc, antibody in 5-fold dilutions from 10 to 0.00064 µg/ml, OD 450 nm
T6 construct: also called common marmoset (Callithrix jacchus) γc
T6 chain: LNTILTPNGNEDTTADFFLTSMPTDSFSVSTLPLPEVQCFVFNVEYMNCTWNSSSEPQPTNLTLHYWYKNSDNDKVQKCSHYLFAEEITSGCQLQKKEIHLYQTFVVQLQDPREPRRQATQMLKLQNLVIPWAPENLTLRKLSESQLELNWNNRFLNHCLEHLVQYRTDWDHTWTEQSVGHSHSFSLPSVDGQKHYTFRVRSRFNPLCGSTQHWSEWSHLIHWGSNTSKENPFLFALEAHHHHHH
Protocol: as §1, §2

[7] = biological target: T7, cynomolgus γc protein (extracellular domain), purified (cynomolgus (Macaca fascicularis), UniProt P31785 23-254 (human entry)); test: ELISA, strip coated with 1 µg/ml cynomolgus γc, antibody in 5-fold dilutions from 10 to 0.00064 µg/ml, OD 450 nm; curve near baseline up to about 0.08 µg/ml, rises to about 1.35 at 10 µg/ml, no upper plateau
T7 construct: Purchased from Sino Biological or in-house; also called cynomolgus (Macaca fascicularis) γc
T7 chain: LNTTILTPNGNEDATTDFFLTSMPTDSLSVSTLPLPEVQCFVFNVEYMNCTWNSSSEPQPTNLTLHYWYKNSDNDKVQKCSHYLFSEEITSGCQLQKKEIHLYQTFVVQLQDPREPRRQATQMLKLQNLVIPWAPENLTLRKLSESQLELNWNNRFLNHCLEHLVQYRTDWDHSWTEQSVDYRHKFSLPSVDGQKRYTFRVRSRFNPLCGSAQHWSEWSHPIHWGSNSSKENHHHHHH
Protocol: as §1

[8] = biological target: T2, human γc protein (extracellular …); test: ELISA, strip coated with 1 µg/ml human γc, antibody in 5-fold dilutions from 10 to 0.00064 µg/ml, OD 450 nm; remark: listed apart in the source
Protocol: as §1, §2

[9] = biological target: T3, rabbit γc protein (extracellular …); test: ELISA, strip coated with 1 µg/ml rabbit γc, antibody in 5-fold dilutions from 10 to 0.00064 µg/ml, OD 450 nm
Protocol: as §1

[10] = biological target: T7, cynomolgus γc protein (extracellular …); test: ELISA, strip coated with 1 µg/ml cynomolgus γc, antibody in 5-fold dilutions from 10 to 0.00064 µg/ml, OD 450 nm; curve rises to about 1.6 at 10 µg/ml, no upper plateau
Protocol: as §1, §2

[11] = biological target: T4, rhesus γc protein (extracellular …); test: ELISA, strip coated with 1 µg/ml rhesus γc, antibody in 5-fold dilutions from 10 to 0.00064 µg/ml, OD 450 nm; curve near baseline up to about 0.4 µg/ml, rises to about 0.8 at 10 µg/ml, no upper plateau
Protocol: as §1, §2

B1: hSM-05A, humanized anti-γc antibody with back-mutation (antibody, V domains shown)
VH: QVQLVQSGAEVLKPGASVKVSCKASGYTFTEYTMHWVKQARGQRLEWIGGIDPYNGGATYNQRFKGKATLTTDTSTSTAYMELRNLRSDDTAVYYCARRRLYYGNALDYWGQGTLVTVSS
VL: DIVMTQSPLSLPVTPGEQASISCRSSQSLVHSNGNTYLHWYLQKPGQSPQLLIYKVSSRFSGVPDRFSGSGSGTDFTLKISRVEAEDVGVYFCSQTTHVPFTFGSGTKLEIKR
notes: Full-length humanized antibody; also called humanized (h) SM-05A; hbSM-05A
For B1, the binding result [1] was “no binding (tested: 5 µg/ml (33 nM))”, the EC50 [2] was 0.02 µg/mL and the binding result [3] was “no binding (tested: 10 µg/ml)”. For the same binder, the binding result [4] was “no binding (tested: 10 µg/ml)”, the EC50 [5] was 0.06 µg/mL and the EC50 [6] was 0.04 µg/mL. It also gave an EC50 [7] of 9.56 µg/mL.

B2: hSM-05E, humanized anti-γc antibody with back-mutation (antibody, V domains shown)
VH: QVQLVQSGAEVLKPGASVKVSCKASGYTFTEYTMHWVKQARGQRLEWIGGIDPNTGGVTYNQKFKGKATLTTDTSTSTAYMELRNLRSDDTAVYYCARRRRYYGYALDYWGQGTLVTVSS
VL: DIVMTQSPLSLPVTPGEQASISCRSSQSIVHSNGNTYLEWYLQKPGQSPQLLIYKVSNRFSGVPDRFSGSGSGTDFTLKISRVEAEDVGVYFCSQSTHVPFMFGSGTKLEIKR
notes: Full-length humanized antibody; also called humanized SM-05E; hbSM-05E
With B2 the EC50 [8] was 0.02 µg/mL, the binding result [9] was “no binding (tested: 10 µg/ml)” and the EC50 [5] was 0.17 µg/mL. For the same binder, the EC50 [6] was 0.17 µg/mL, the EC50 [10] was 5.78 µg/mL and the EC50 [11] was 6.3 µg/mL.
